We go through six molecules from patent US7414113B2, “Antibody that specifically binds to Candida kefyr Cytosine deaminase” (Onyx Pharmaceuticals, Inc., priority 2002, dated 2008).

Changes are numbered by the printed parent chain. Numbers in names are those of the source. Entries after “also recorded” stand apart in the source; their conditions may differ.

For one data set, the system named is HEK 293 cells. The data set can be described thus: Expression of CD constructs, anti-FLAG Western blot of cell lysate. Type of data set: cell-based, Human. Conditions: transiently transfected HEK 293 cells. The text has this: Human embryonic kidney cells (HEK 293 cells) were transiently transfected with one of these constructs: CK-CD-FLAG, CK-CD, E-CD-FLAG, E-CD or vector alone (pCMV-tag4C). […] Cells co-transfected with a construct and a GFP containing plasmid indicated approximately equivalent levels of transfection.
The experimental details are as follows: 293 cells in 10 cm dishes were transfected with 10 or 15 ÿg of CD constructs using FuGene® 6 (ROCHE™) at a DNA/FuGene® ratio of 1:3. No carrier DNA was used. Cell lysates were collected in 1 ml of lysis buffer (20 mM Tris-Cl, pH8, 150 mM NaCl, 1% Triton X-100) after 48 hours by three freeze/thaw cycles using dry ice for 10 minutes and room temperature for 10 minutes.
30 μl of cell lysate was separated by 12% SDS-PAGE, transferred to membrane and then Western blotted with anti-flag monoclonal antibody at a dilution of 1:5000 (SIGMA™). The membranes were incubated with HRP conjugated goat-anti-mouse secondary antibody (1:10000, AMERSHAM™) and the signal visualized with an ECL system (AMERSHAM™). […] Similar results were obtained (not shown) when the cells were transfected with 2 μg of each DNA construct. Experiments are planned to test a humanized C. kefyr gene and it is expected that the humanized gene will improve the expression levels.
Because the bacterial protein was more strongly expressed than the yeast protein, an attempt was made to compare the levels for the amount of expression of the two clones. In a second Western blot, 30 μl of CK-CD-FLAG was compared against increasing amounts of E-CD-FLAG. […] In the following experiments, this ratio of cell lysates is used. The presence of a fainter band at about 38 KD may indicate that some portion of the CK-CD protein dimerizes.
For orientation: Immunoblotting shows a protein as a band on a membrane.

Data set [1] is described as follows: 5FC to 5FU conversion assay at different temperatures (14C, TLC). The class given is biochemical. To be noted: for 5FC to 5FU conversion activity: cell lysate, 2 hour assay, FIG. 10. The protocol: (§1) The plate was then dried and visualized by autoradiography.
In the next experiment, we tested the activity of each enzyme against 5FC. The experiment was performed as described above, but using 5FC in place of cytosine. Further, this experiment was combined with a temperature optimization study and was performed at 4 different temperatures. […] Further, a variant with increased stability can be isolated by screening yeast grown at 37° C., as described in the Examples below.

For data set [2] the following is noted: reference 16, cited from earlier work.
For data set [3] the following is noted: cell lysate, 37° C., 16 hour assay, FIG. 9; listed as C. kefyr CD protein.
Description: The reaction mixtures were loaded onto a TLC plate (LK5DF SILICA GEL, Cat. No. 4856-821, WHATMAN™) and resolved with 1-butanol:H2O (85:15) for 3 hours. The plate was then dried and visualized by autoradiography.
Cell lysates were assayed for cytosine to uracil conversion at 37° C. in a 16 hour assay.
The nature of data set [4]: Activity of CD variants (conversion of 5FC to 5FU). Type of data set: biochemical. To be noted: mutant tested, versus protein of SEQ ID NO: 2.
Source text: “Fragments” refers to those polypeptides (or nucleic acid sequences encoding such polypeptides) retaining antigenicity, a structural domain, or an enzymatic activity of the full-length protein. The “enzymatic activity” of the CD protein is herein defined to be the conversion of 5FC to 5FU.
as §1
The specific variants listed in table 2 are synthesized by site specific mutagenesis of SEQ ID NO: 1 or SEQ ID NO: 3. […] Further, changes within the cytidine and deoxycytidylate deaminase zinc-binding region (grey box) are also expected to be less well tolerated than changes outside this region. These residues involve a change in charge as compared with the closest homolog and are in the binding region. Changes in these residues are expected to change function. Active variants are likely to be those that involve conservative changes in those residues not conserved in the 2 yeasts, particularly those outside the binding region.
Variants are expressed in E. coli and screened for activity using the assay described in example 3, or any suitable assay. Alternatively, random mutagenesis is performed and the products are similarly screened. In this manner, it will be possible to isolate variants with improved temperature stability at 37° C. and mutants with even better activity than that described herein.

For data set [5] the following is noted: cited from earlier work.

Description for transfected cells: Cytotoxicity assay—transfected cells were seeded at a density of 1×10^3 cells/well in a 96-well microtiterplate containing 100 μl of culture medium. A set of sterile stock dilutions of the 10 mg/ml 5FC solution were prepared. One day later, increasing concentrations of 5FC was added to the wells, and a control well without the prodrug was included. After 5-7 days, the cells were washed with fresh medium and cytotoxicity was assessed by trypan blue exclusion, using a hemocytometer to quantify the results.

B1: E-CD-FLAG: E. coli cytosine deaminase with FLAG tag (protein, UniProt P25524 2-427, looked up)
Cytosine deaminase: SNNALQTIINARLPGEEGLWQIHLQDGKISAIDAQSGVMPITENSLDAEQGLVIPPFVEPHIHLDTTQTAGQPNWNQSGTLFEGIERWAERKALLTHDDVKQRAWQTLKWQIANGIQHVRTHVDVSDATLTALKAMLEVKQEVAPWIDLQIVAFPQEGILSYPNGEALLEEALRLGADVVGAIPHFEFTREYGVESLHKTFALAQKYDRLIDVHCDEIDDEQSRFVETVAALAHHEGMGARVTASHTTAMHSYNGAYTSRLFRLLKMSGINFVANPLVNIHLQGRFDTYPKRRGITRVKEMLESGINVCFGHDDVFDPWYPLGTANMLQVLHMGLHVCQLMGYGQINDGLNLITHHSARTLNLQDYGIAAGNSANLIILPAENGFDALRRQVPVRYSVRGGKVIASTQPAQTTVYLEQPEAIDYKR
modifications: FLAG tag
With B1, the expression level entry is reported as “much more strongly expressed than the yeast protein” in the data set on HEK 293 cells and “expressed much more efficiently than Candida kefyr CD-FLAG” with HEK 293 cells (listed as E. coli CD-FLAG).

B2: E-CD: E. coli (bacterial) cytosine deaminase, 427 amino acids (protein, UniProt P25524 2-427, looked up)
Cytosine deaminase: B1 Cytosine deaminase
By Km is commonly meant the concentration of substrate that gives half-maximal velocity. B2: the 5FU produced result in data set [1] (16 hours of reaction (not shown)) is recorded as “as much or more 5FU than the yeast protein”. In data set [2], the “Activity % 5FU/5FC by 0.2 μg CD in 2 h” value is on record as “^1616.0 ± 0.8%”, the Michaelis-Menten constant (Km) is 17.9 mM and the Vmax entry is “^1611.7 ± 3.8 μM/min/μg enzyme”.

B3: CD-FUR1 fusion protein: Fusion of Candida kefyr CD and uracil phosphoribosyltransferase (FUR1) (protein)
chain: MAEWDQKGMDKAYEEAAIGYKEGGVPIGGCLIDNLTGEILGSGHNMRFQKGSPTLHGETSTLENAGRLKGSVYKHCTMYTTLSPCDMCTGAILLYGIGRVVIGENVNFKSPGEEYLTSRGVELKVVDDKRCIDIMKEFIEKRPEDWYEDIGEASEPFKNVYLLPQTNQLLGLYTIIRNKNTTRPDFIFYSDRIIRLLVEEGLNHLPVQKQIVETDTNENFEGVSFMGKICGVSIVRAGESMEQGLRDCCRSVRIGKILIQRDEETALPKLFYEKLPEDISERYVFLLDPMLATGGSAIMATEVLIKRGVKPERIYFLNLICSKEGIEKYHAAFPEVRIVTGALDRGLDENKYLVPGLGDFGDRYYCV
B3: the “expected activity in cytotoxicity assay” value in the data set on transfected cells is on record as “increased activity”.

B4: CK-CD: Wild type Candida kefyr cytosine deaminase protein, 152 amino acids, SEQ ID NO: 2 (protein)
chain: MAEWDQKGMDKAYEEAAIGYKEGGVPIGGCLIDNLTGEILGSGHNMRFQKGSPTLHGETSTLENAGRLKGSVYKHCTMYTTLSPCDMCTGAILLYGIGRVVIGENVNFKSPGEEYLTSRGVELKVVDDKRCIDIMKEFIEKRPEDWYEDIGE
Regarding B4, the expression level entry in the data set on HEK 293 cells was “significantly lower expression levels than E. coli CD”. In data set [1], the “substrate preference, 5FC versus cytosine” value is recorded as 5FC is a better substrate for C. kefyr CD than is the natural substrate, cytosine. Moreover, the “Activity % 5FU/5FC” value in data set [1] (by 45 ul cell extract, 2 h) is on record as roughly 50% by 45 ul. For the same molecule, the entries for the “5FC to 5FU conversion activity” value in data set [1], in data set [1] (listed as C. kefyr CD) and in data set [1] (listed as C. kefyr protein) were “much more active than CK-CD-FLAG; also recorded: more active against 5FC than the bacterial protein; also recorded: more active against 5FC than is the E. coli CD at 2 hours”, “much higher in converting 5FC to 5FU” and “sufficiently active at 37 °C”, respectively. In addition, the “cytosine to uracil conversion activity” value in data set [3] is recorded as “far less active against cytosine than was the E. coli CD protein”. In the data set with transfected cells, the “increased cytotoxicity and bystander effect per unit dose of 5FC compared with the bacteria” value is reported as “up to 10 fold”.

B5: CK-CD-FLAG: Candida kefyr CD with FLAG tag, with the D33E variation (protein)
chain: B4 chain with D33E
modifications: C-terminal FLAG tag
notes: Candida kefyr CD with FLAG tag, with the D33E variation
With B5, in the data set on HEK 293 cells, the expression level entry is listed as “about ten-fold less well expressed than the E-CD-FLAG”. In data set [1], the “5FC to 5FU conversion activity” value is “more active against 5FC than the bacterial protein”. Moreover, the Activity entry in data set [4] is “Mutant tested and has less activity”.

B6: S. cerevisiae FCY1: Wild type Saccharomyces cerevisiae CD protein, 158 amino acids (protein)
chain: MVTGGMASKWDQKGMDIAYEEAALGYKEGGVPIGGCLINNKDGSVLGRGHNMRFQKGSATLHGEISTLENCGRLEGKVYKDTTLYTTLSPCDMCTGAIIMYGIPRCVVGENVNFKSKGEKYLQTRGHEVVVVDDERCKKIMKQFIDERPQDWFEDIGE
As to B6, in data set [2], the “Activity % 5FU/5FC by 0.2 μg CD in 2 h” value was “^1677.9 ± 6.2%”, the Michaelis-Menten constant (Km) is 0.8 mM and the Vmax entry is given as “^1668.0 ± 12.0 μM/min/μg enzyme”. In addition, the T½ result in data set [5] (measured, reference 16 (value in brackets)) is “(^161) HR”. In data set [5] (thermal instability, reference 16), the “measured T1/2” value was 1 h.
